This is an account of results in publication PMC10786891, “Massively parallel profiling of RNA-targeting CRISPR-Cas13d”.

T1: EsCas13d, nuclease-dead (Eubacterium siraeum, UniProt B0MS50, R295A;H300A;R849A;H854A)
T1 sequence: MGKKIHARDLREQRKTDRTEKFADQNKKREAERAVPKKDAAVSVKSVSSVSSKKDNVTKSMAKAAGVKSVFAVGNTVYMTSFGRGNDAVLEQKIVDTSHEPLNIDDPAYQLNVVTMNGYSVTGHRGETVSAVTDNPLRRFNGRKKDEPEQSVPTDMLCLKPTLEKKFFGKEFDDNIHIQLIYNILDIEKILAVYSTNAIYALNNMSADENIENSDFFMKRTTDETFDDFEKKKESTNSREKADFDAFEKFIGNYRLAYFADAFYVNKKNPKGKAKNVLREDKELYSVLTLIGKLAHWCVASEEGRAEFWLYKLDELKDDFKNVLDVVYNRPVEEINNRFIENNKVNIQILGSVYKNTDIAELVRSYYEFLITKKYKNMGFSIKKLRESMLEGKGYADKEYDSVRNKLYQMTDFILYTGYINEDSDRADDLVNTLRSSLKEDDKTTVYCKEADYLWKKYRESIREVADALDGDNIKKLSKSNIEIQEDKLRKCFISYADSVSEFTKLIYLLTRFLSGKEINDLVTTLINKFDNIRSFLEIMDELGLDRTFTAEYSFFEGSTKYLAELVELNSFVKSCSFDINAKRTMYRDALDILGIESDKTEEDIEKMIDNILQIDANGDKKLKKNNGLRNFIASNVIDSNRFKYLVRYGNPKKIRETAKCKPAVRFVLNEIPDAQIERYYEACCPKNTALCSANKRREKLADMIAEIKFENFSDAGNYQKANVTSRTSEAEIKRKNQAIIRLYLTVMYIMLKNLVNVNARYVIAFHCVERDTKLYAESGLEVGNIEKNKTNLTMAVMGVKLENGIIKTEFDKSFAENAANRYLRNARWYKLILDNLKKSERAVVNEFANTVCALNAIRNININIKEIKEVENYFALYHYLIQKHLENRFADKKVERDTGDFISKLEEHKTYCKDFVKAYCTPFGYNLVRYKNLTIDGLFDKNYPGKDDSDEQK

B1: target 1 insC 3' of 15,insG 3' of 9 (mixed)
RNA 1: CACCCGUGCAAAAAUGCAGGGGUCUAAAACUGAGCGGAUAACCUCUCUAUGG
RNA 2: GGGAAUGGAUCCACAUCUACGAAUUCGUACCAUAGAGCAGGUUAGUCCGCUCACCGAGAUCGGAAGAGCACACGU
B2: target 1 insG 3' of 6,insA 3' of 6 (mixed)
RNA 1: CACCCGUGCAAAAAUGCAGGGGUCUAAAACUGAGCGGAUAACCUCUCUAUGG
RNA 2: GGGAAUGGAUCCACAUCUACGAAUUCGUACCAUAGAGAGGUUAUCCGAGCUCACCGAGAUCGGAAGAGCACACGU
B3: target 1 U10G,G12A (mixed)
RNA 1: CACCCGUGCAAAAAUGCAGGGGUCUAAAACUGAGCGGAUAACCUCUCUAUGG
RNA 2: GGGAAUGGAUCCACAUCUACGAAUUCGUACCAUAGAGAGAUGAUCCGCUCACCGAGAUCGGAAGAGCACACGU
B4: target 1 insA 3' of 17,insU 3' of 4 (mixed)
RNA 1: CACCCGUGCAAAAAUGCAGGGGUCUAAAACUGAGCGGAUAACCUCUCUAUGG
RNA 2: GGGAAUGGAUCCACAUCUACGAAUUCGUACCAUAGAAGAGGUUAUCCGCUUCACCGAGAUCGGAAGAGCACACGU
B5: target 1 U3G,C21A (mixed)
RNA 1: CACCCGUGCAAAAAUGCAGGGGUCUAAAACUGAGCGGAUAACCUCUCUAUGG
RNA 2: GGGAAUGGAUCCACAUCUACGAAUUCGUACAAUAGAGAGGUUAUCCGCGCACCGAGAUCGGAAGAGCACACGU
B6: target 1 complement block 6-10 (mixed)
RNA 1: CACCCGUGCAAAAAUGCAGGGGUCUAAAACUGAGCGGAUAACCUCUCUAUGG
RNA 2: GGGAAUGGAUCCACAUCUACGAAUUCGUACCAUAGAGAGGUAUAGGGCUCACCGAGAUCGGAAGAGCACACGU
B7: target 1 U8C,G17C (mixed)
RNA 1: CACCCGUGCAAAAAUGCAGGGGUCUAAAACUGAGCGGAUAACCUCUCUAUGG
RNA 2: GGGAAUGGAUCCACAUCUACGAAUUCGUACCAUACAGAGGUUACCCGCUCACCGAGAUCGGAAGAGCACACGU
B8: target 1 C7G,A9U (mixed)
RNA 1: CACCCGUGCAAAAAUGCAGGGGUCUAAAACUGAGCGGAUAACCUCUCUAUGG
RNA 2: GGGAAUGGAUCCACAUCUACGAAUUCGUACCAUAGAGAGGUUUUGCGCUCACCGAGAUCGGAAGAGCACACGU
B9: target 1 C6G,A16G (mixed)
RNA 1: CACCCGUGCAAAAAUGCAGGGGUCUAAAACUGAGCGGAUAACCUCUCUAUGG
RNA 2: GGGAAUGGAUCCACAUCUACGAAUUCGUACCAUAGGGAGGUUAUCGGCUCACCGAGAUCGGAAGAGCACACGU
B10: target 1 insU 3' of 15,insC 3' of 13 (mixed)
RNA 1: CACCCGUGCAAAAAUGCAGGGGUCUAAAACUGAGCGGAUAACCUCUCUAUGG
RNA 2: GGGAAUGGAUCCACAUCUACGAAUUCGUACCAUAGAGUAGCGUUAUCCGCUCACCGAGAUCGGAAGAGCACACGU
B11: target 1 insC 3' of 13,insG 3' of 10 (mixed)
RNA 1: CACCCGUGCAAAAAUGCAGGGGUCUAAAACUGAGCGGAUAACCUCUCUAUGG
RNA 2: GGGAAUGGAUCCACAUCUACGAAUUCGUACCAUAGAGAGCGUUGAUCCGCUCACCGAGAUCGGAAGAGCACACGU
B12: target 1 C7G,G15A (mixed)
RNA 1: CACCCGUGCAAAAAUGCAGGGGUCUAAAACUGAGCGGAUAACCUCUCUAUGG
RNA 2: GGGAAUGGAUCCACAUCUACGAAUUCGUACCAUAGAAAGGUUAUGCGCUCACCGAGAUCGGAAGAGCACACGU
B13: target 1 insC 3' of 14,insU 3' of 4 (mixed)
RNA 1: CACCCGUGCAAAAAUGCAGGGGUCUAAAACUGAGCGGAUAACCUCUCUAUGG
RNA 2: GGGAAUGGAUCCACAUCUACGAAUUCGUACCAUAGAGACGGUUAUCCGCUUCACCGAGAUCGGAAGAGCACACGU
B14: target 1 C6G,G12C (mixed)
RNA 1: CACCCGUGCAAAAAUGCAGGGGUCUAAAACUGAGCGGAUAACCUCUCUAUGG
RNA 2: GGGAAUGGAUCCACAUCUACGAAUUCGUACCAUAGAGAGCUUAUCGGCUCACCGAGAUCGGAAGAGCACACGU
B15: target 1 A14G,A16C (mixed)
RNA 1: CACCCGUGCAAAAAUGCAGGGGUCUAAAACUGAGCGGAUAACCUCUCUAUGG
RNA 2: GGGAAUGGAUCCACAUCUACGAAUUCGUACCAUAGCGGGGUUAUCCGCUCACCGAGAUCGGAAGAGCACACGU
B16: target 1 insA 3' of 15,insG 3' of 1 (mixed)
RNA 1: CACCCGUGCAAAAAUGCAGGGGUCUAAAACUGAGCGGAUAACCUCUCUAUGG
RNA 2: GGGAAUGGAUCCACAUCUACGAAUUCGUACCAUAGAGAAGGUUAUCCGCUCAGCCGAGAUCGGAAGAGCACACGU
B17: target 1 insU 3' of 21 (mixed)
RNA 1: CACCCGUGCAAAAAUGCAGGGGUCUAAAACUGAGCGGAUAACCUCUCUAUGG
RNA 2: GGGAAUGGAUCCACAUCUACGAAUUCGUACCUAUAGAGAGGUUAUCCGCUCACCGAGAUCGGAAGAGCACACGU
B18: target 1 del7,del9 (mixed)
RNA 1: CACCCGUGCAAAAAUGCAGGGGUCUAAAACUGAGCGGAUAACCUCUCUAUGG
RNA 2: GGGAAUGGAUCCACAUCUACGAAUUCGUACCAUAGAGAGGUUUCGCUCACCGAGAUCGGAAGAGCACACGU
B19: target 1 insA 3' of 15,insA 3' of 2 (mixed)
RNA 1: CACCCGUGCAAAAAUGCAGGGGUCUAAAACUGAGCGGAUAACCUCUCUAUGG
RNA 2: GGGAAUGGAUCCACAUCUACGAAUUCGUACCAUAGAGAAGGUUAUCCGCUCAACCGAGAUCGGAAGAGCACACGU
B20: target 1 C7U,G12C (mixed)
RNA 1: CACCCGUGCAAAAAUGCAGGGGUCUAAAACUGAGCGGAUAACCUCUCUAUGG
RNA 2: GGGAAUGGAUCCACAUCUACGAAUUCGUACCAUAGAGAGCUUAUUCGCUCACCGAGAUCGGAAGAGCACACGU
B21: target 1 insA 3' of 15,insC 3' of 1 (mixed)
RNA 1: CACCCGUGCAAAAAUGCAGGGGUCUAAAACUGAGCGGAUAACCUCUCUAUGG
RNA 2: GGGAAUGGAUCCACAUCUACGAAUUCGUACCAUAGAGAAGGUUAUCCGCUCACCCGAGAUCGGAAGAGCACACGU
B22: target 1 insA 3' of 4,insU 3' of 1 (mixed)
RNA 1: CACCCGUGCAAAAAUGCAGGGGUCUAAAACUGAGCGGAUAACCUCUCUAUGG
RNA 2: GGGAAUGGAUCCACAUCUACGAAUUCGUACCAUAGAGAGGUUAUCCGCAUCAUCCGAGAUCGGAAGAGCACACGU
B23: target 1 insG 3' of 22,insC 3' of 18 (mixed)
RNA 1: CACCCGUGCAAAAAUGCAGGGGUCUAAAACUGAGCGGAUAACCUCUCUAUGG
RNA 2: GGGAAUGGAUCCACAUCUACGAAUUCGUACGCAUACGAGAGGUUAUCCGCUCACCGAGAUCGGAAGAGCACACGU

This data set addresses T1, EsCas13d, nuclease-dead. The experiment in a line: crRNA (strand 1, pre-loaded); Mg2+; 40 mM Tris-HCl pH 7.5, 150 mM NaCl, 6 mM MgCl2, 1 mM DTT, 0.1% Tween-20, 0.2 mg/ml BSA; 25 C; 10 min per concentration, then washed. Conditions: tags: His6-TwinStrep-SUMO cleaved; N-terminal SNAP kept (SNAP-Surface 488); label: 3' end held by stalled T7 RNA polymerase.
Usually Kd stands for the concentration at which binding is half-saturated. Higher therefore signals weaker binding. Molecule B1 came in with a Kd of 20.8 ± 1 nM.

B2 yielded an equilibrium dissociation constant (Kd) of 10.6 ± 1.1 nM.

B3 came in with a Kd of 32.9 ± 2.7 nM.

For B4, the affinity, expressed as Kd, was 44 ± 5 nM.

For B5, the Kd turned out to be 41 ± 14 nM.

B6 had a Kd of 10.1 ± 0.6 nM.

For B7, binding was characterised by a dissociation constant (Kd) of 90 ± 32 nM. This Kd lies about 8.9-fold higher than the previous one.

Turning to B8, the Kd was 7.61 ± 0.27 nM. Against the preceding molecule, the Kd is about 12-fold lower.

Turning to B9, the Kd turned out to be 31.8 ± 1.6 nM.

For B10, the dissociation constant Kd was found to be 19.3 ± 2.7 nM.

On to B11, for which binding was characterised by a dissociation constant (Kd) of 15.8 ± 1.7 nM.

B12 showed a Kd of 22.5 ± 1.6 nM.

B13 had a Kd of 43 ± 4 nM. Against the preceding molecule, the Kd is about 1.9-fold higher.

B14 registered a dissociation constant Kd of 15.1 ± 0.7 nM.

For the molecule B15, the affinity, expressed as Kd, was 67 ± 11 nM.

Turning to B16, binding was put at a Kd of 5.96 ± 0.32 nM.

The molecule B17 came in with a dissociation constant Kd of 24 ± 1.6 nM.

On to B18, for which the dissociation constant (Kd) is 12.3 ± 0.9 nM. Against the preceding molecule, the Kd is about 2-fold lower.

B19 gave a dissociation constant (Kd) of 6.4 ± 0.4 nM.

Turning to B20, the Kd was 9.7 ± 0.7 nM.

With B21, the Kd was determined as 7.1 ± 0.8 nM.

With B22, the Kd is 7 ± 0.6 nM.

In turn, B23 showed a dissociation constant (Kd) of 73 ± 23 nM.
